B1: Ribonuclease HI, P0A7Y4 (parent)
chain: MLKQVEIFTDGSCLGNPGPGGYGAILRYRGREKTFSAGYTRTTNNRMELMAAIVALEALKEHCEVILSTDSQYVRQGITQWIHNWKKRGWKTADKKPVKNVDLWQRLDAALGQHQIKWEWVKGHAGHPENERCDELARAAAMNPTLEDTGYQVEV

The series covers variants of B1. To be noted: Escherichia coli (strain K12), pH 3.2, Thermal, CD, glycine-HCl 10 mM, reversible: yes, structure 2RN2, whole UniProt chain shown; for ddG of mutation (higher = less stable): 53 °C.

The text below walks through data of FireProtDB (doi:10.1074/jbc.272.30.18686).

A52V V74L: the “ddG of mutation (higher = less stable)” value was -2.43 kcal/mol; the Tm – broadly, the temperature at the midpoint of the melting transition – was determined as 61 °C; the “change of melting temperature, mutant - wild type (higher = more stable)” value (shortened to “change of melting temperature, mutant”) was 8.07 °C; the “unfolding enthalpy (van 't Hoff)” value was determined as 126 kcal/mol.

In the case of A52V V74A, the “ddG of mutation (higher = less stable)” value came to 0.52 kcal/mol; the Tm was 51.3 °C; the “change of melting temperature, mutant” value was -1.7 °C; the “unfolding enthalpy (van 't Hoff)” value worked out at 107 kcal/mol.

Take A52F V74A: the Tm came to 48.4 °C; the “change of melting temperature, mutant” value was -4.6 °C; the “unfolding enthalpy (van 't Hoff)” value amounted to 85.8 kcal/mol.

Take A52F V74L: the “ddG of mutation (higher = less stable)” value was -0.03 kcal/mol; the Tm worked out at 53.1 °C; the “change of melting temperature, mutant” value turned out to be 0.1 °C; the “unfolding enthalpy (van 't Hoff)” value was found to be 99.8 kcal/mol.

Take A52L V74A: the “ddG of mutation (higher = less stable)” value is -0.36 kcal/mol; the Tm is 54.2 °C; the “change of melting temperature, mutant” value stood at 1.2 °C; the “unfolding enthalpy (van 't Hoff)” value amounted to 105 kcal/mol.

As to A52L V74L, the “ddG of mutation (higher = less stable)” value is -1.49 kcal/mol; the Tm was determined as 57.9 °C; the “change of melting temperature, mutant” value amounted to 4.9 °C; the “unfolding enthalpy (van 't Hoff)” value is 118 kcal/mol.

A52G V74L: the “ddG of mutation (higher = less stable)” value was found to be 1.4 kcal/mol; the Tm was 48.4 °C; the “change of melting temperature, mutant” value was -4.6 °C; the “unfolding enthalpy (van 't Hoff)” value was 97.8 kcal/mol.

Regarding A52I V74A, the “ddG of mutation (higher = less stable)” value is -1.19 kcal/mol; the Tm stood at 56.9 °C; the “change of melting temperature, mutant” value stood at 3.9 °C; the “unfolding enthalpy (van 't Hoff)” value came to 102 kcal/mol.

For the variant A52I V74L, the “ddG of mutation (higher = less stable)” value is -1.19 kcal/mol; the Tm came out at 56.9 °C; the “change of melting temperature, mutant” value is 3.9 °C; the “unfolding enthalpy (van 't Hoff)” value stood at 122 kcal/mol.

As to A52S, the “ddG of mutation (higher = less stable)” value was determined as 1.8 kcal/mol; the Tm came to 47.2 °C; the “change of melting temperature, mutant” value was -5.8 °C; the “unfolding enthalpy (van 't Hoff)” value was 118 kcal/mol.

For A52Q, the “ddG of mutation (higher = less stable)” value is 1.2 kcal/mol; the Tm turned out to be 49.1 °C; the “change of melting temperature, mutant” value was -3.9 °C; the “unfolding enthalpy (van 't Hoff)” value was found to be 90.3 kcal/mol.

Regarding A52Y, the “ddG of mutation (higher = less stable)” value was determined as 2.3 kcal/mol; the Tm stood at 45.4 °C; the “change of melting temperature, mutant” value is -7.6 °C; the “unfolding enthalpy (van 't Hoff)” value was 70.8 kcal/mol.

A52N: the “ddG of mutation (higher = less stable)” value came to 1.8 kcal/mol; the Tm amounted to 47.1 °C; the “change of melting temperature, mutant” value is -5.9 °C; the “unfolding enthalpy (van 't Hoff)” value is 95.6 kcal/mol.

Turning to A52E, the “ddG of mutation (higher = less stable)” value turned out to be 1.5 kcal/mol.

For A52H, the Tm stood at 41.2 °C; the “change of melting temperature, mutant” value is -11.8 °C; the “unfolding enthalpy (van 't Hoff)” value was 84.7 kcal/mol.

A52K: the “ddG of mutation (higher = less stable)” value stood at 5.9 kcal/mol; the Tm was 33.5 °C; the “change of melting temperature, mutant” value is -19.5 °C; the “unfolding enthalpy (van 't Hoff)” value turned out to be 70.8 kcal/mol.

As to A52G, the Tm was 44.1 °C; the “change of melting temperature, mutant” value was -8.9 °C; the “unfolding enthalpy (van 't Hoff)” value worked out at 91 kcal/mol.

With A52M, the “ddG of mutation (higher = less stable)” value was -0.5 kcal/mol; the Tm is 54.6 °C; the “change of melting temperature, mutant” value was 1.6 °C; the “unfolding enthalpy (van 't Hoff)” value was found to be 112 kcal/mol.

With A52T, the “ddG of mutation (higher = less stable)” value was determined as 0.8 kcal/mol; the Tm worked out at 50.3 °C; the “change of melting temperature, mutant” value is -2.7 °C; the “unfolding enthalpy (van 't Hoff)” value was 108 kcal/mol.

Regarding A52V, the “ddG of mutation (higher = less stable)” value is -1.7 kcal/mol; the Tm stood at 58.5 °C; the “change of melting temperature, mutant” value amounted to 5.5 °C; the “unfolding enthalpy (van 't Hoff)” value is 128 kcal/mol.

For the variant A52I, the “ddG of mutation (higher = less stable)” value is -1.9 kcal/mol; the Tm is 59.2 °C; the “change of melting temperature, mutant” value amounted to 6.2 °C; the “unfolding enthalpy (van 't Hoff)” value was found to be 84.8 kcal/mol.

Turning to A52D, the “ddG of mutation (higher = less stable)” value came out at 1.9 kcal/mol.

Regarding A52F, the Tm was 51.5 °C; the “change of melting temperature, mutant” value was -1.5 °C; the “unfolding enthalpy (van 't Hoff)” value came to 89 kcal/mol.

For the variant A52L, the “ddG of mutation (higher = less stable)” value is -1.3 kcal/mol.

Consider A52C, for which the “ddG of mutation (higher = less stable)” value was -0.8 kcal/mol; the Tm worked out at 55.5 °C; the “change of melting temperature, mutant” value stood at 2.5 °C; the “unfolding enthalpy (van 't Hoff)” value amounted to 128 kcal/mol.

A52P: the “ddG of mutation (higher = less stable)” value came to 1.6 kcal/mol; the Tm came to 47.6 °C; the “change of melting temperature, mutant” value is -5.4 °C; the “unfolding enthalpy (van 't Hoff)” value was 93 kcal/mol.
